Test results as given in patent US20240190978A1 (CSBIOASSET, published 2024).

Assays:
[1] = biological target: T1, human CD40-Avi-tag (human, UniProt P25942 21-193); assay: SPR (Biacore 8K, 25 °C), hCD40 immobilized, 1:1 binding model
T1 construct: Immobilized on NA-coated CM5 chips at about 200 RU; not shown: Avi-tag
Description: (§1) To evaluate binding of the bispecific binding proteins disclosed herein, surface plasmon resonance (SPR) studies were performed on a Biacore 8k instrument (GE Healthcare) at 25° C. The binding of the protein analytes was tested in buffer: 10 mM HEPES, 150 mM NaCl, 3 mM EDTA, 0.05% TWEEN20, pH7.4 on surfaces consisting of a low density (˜200RU) of human CD40-Avi-tag or human CD80-Avi-tag which had been immobilized on NA-coated CM5 chips using standard protocol. The protein analytes were injected in a titration series at a flowrate of 50 ul/min. The data were analyzed using the Biacore Insight Evaluation software. An 1:1 binding kinetic and affinity models are applied for experimental data analysis. The value for the equilibrium dissociation constant (KD) was calculated as the ratio of the rate constants Kd/Ka.

[2] = biological target: T2, human CD80-Avi-tag (human, UniProt P33681 35-242); assay: SPR (Biacore 8K, 25 °C), hCD80 immobilized, 1:1 binding model
T2 construct: also called immobilized human CD80; not shown: Avi-tag
T2 sequence (looked up): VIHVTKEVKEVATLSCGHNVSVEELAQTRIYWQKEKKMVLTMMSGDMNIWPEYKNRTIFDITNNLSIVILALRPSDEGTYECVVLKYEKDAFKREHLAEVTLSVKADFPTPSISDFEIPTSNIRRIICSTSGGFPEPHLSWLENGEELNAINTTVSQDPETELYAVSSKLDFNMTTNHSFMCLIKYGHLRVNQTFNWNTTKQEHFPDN
Description: as §1

T1 sequence (P25942 21-193 limits assumed): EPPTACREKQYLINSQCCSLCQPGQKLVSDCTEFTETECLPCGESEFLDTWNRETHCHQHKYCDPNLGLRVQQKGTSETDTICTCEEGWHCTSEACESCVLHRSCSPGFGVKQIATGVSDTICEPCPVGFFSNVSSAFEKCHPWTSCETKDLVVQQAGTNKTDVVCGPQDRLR

B1: α-CD40/CTLA-4 bispecific protein (SEQ ID NO: 2 with SEQ ID NO: 11) (bispecific antibody, human IgG4 S228P, kappa)
heavy: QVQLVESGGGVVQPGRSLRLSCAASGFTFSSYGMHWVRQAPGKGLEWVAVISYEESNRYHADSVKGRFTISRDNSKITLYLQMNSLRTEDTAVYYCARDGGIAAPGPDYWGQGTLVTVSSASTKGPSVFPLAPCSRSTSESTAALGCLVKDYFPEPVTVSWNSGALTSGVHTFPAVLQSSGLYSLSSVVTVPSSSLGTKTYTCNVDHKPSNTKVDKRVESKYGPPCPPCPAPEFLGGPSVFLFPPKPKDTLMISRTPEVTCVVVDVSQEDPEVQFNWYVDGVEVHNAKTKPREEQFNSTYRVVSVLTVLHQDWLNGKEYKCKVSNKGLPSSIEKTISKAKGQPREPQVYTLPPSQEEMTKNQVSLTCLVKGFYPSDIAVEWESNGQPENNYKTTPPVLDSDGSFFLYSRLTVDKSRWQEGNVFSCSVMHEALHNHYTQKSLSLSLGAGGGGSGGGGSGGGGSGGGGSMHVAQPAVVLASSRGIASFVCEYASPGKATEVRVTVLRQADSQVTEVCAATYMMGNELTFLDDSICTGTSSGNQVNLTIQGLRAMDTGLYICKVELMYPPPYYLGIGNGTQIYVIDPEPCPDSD
light: DIVMTQSPLSLTVTPGEPASISCRSSQSLLYSNGYNYLDWYLQKPGQSPQVLISLGSNRASGVPDRFSGSGSGTDFTLKISRVEAEDVGVYYCMQARQTPFTFGPGTKVDIRRTVAAPSVFIFPPSDEQLKSGTASVVCLLNNFYPREAKVQWKVDNALQSGNSQESVTEQDSKDSTYSLSSTLTLSKADYEKHKVYACEVTHQGLSSPVTKSFNRGEC
notes: also called Duotein-B; exemplary α-CD40/CTLA-4 bispecific protein
Q: What does the source list for B1?
A: Kd [1]: 0.325 nM; koff [1]: 9.84e-05 s⁻¹; kon [1]: 303000 M⁻¹ s⁻¹; Kd [2]: 154 nM; koff [2]: 0.12 s⁻¹; kon [2]: 780000 M⁻¹ s⁻¹
